Assays:
[1] = molecular target: Hck (UniProt P08631); assay: phosphorylation enrichment, bacterial display (enrichment ratio); higher = better substrate or ligand; peptides without Tyr show the background
[2] = test system: c-Src; assay: as above
[3] = test system: Fer (mouse); assay: as above
[4] = molecular target: FGFR3 (UniProt P22607); assay: as above
[5] = molecular target: MERTK (UniProt Q12866); assay: as above
[6] = test system: c-Abl (mouse); assay: as above
[7] = molecular target: EPHB1 (UniProt P54762); assay: as above
EPHB1, sequence (P54762 whole entry, looked up): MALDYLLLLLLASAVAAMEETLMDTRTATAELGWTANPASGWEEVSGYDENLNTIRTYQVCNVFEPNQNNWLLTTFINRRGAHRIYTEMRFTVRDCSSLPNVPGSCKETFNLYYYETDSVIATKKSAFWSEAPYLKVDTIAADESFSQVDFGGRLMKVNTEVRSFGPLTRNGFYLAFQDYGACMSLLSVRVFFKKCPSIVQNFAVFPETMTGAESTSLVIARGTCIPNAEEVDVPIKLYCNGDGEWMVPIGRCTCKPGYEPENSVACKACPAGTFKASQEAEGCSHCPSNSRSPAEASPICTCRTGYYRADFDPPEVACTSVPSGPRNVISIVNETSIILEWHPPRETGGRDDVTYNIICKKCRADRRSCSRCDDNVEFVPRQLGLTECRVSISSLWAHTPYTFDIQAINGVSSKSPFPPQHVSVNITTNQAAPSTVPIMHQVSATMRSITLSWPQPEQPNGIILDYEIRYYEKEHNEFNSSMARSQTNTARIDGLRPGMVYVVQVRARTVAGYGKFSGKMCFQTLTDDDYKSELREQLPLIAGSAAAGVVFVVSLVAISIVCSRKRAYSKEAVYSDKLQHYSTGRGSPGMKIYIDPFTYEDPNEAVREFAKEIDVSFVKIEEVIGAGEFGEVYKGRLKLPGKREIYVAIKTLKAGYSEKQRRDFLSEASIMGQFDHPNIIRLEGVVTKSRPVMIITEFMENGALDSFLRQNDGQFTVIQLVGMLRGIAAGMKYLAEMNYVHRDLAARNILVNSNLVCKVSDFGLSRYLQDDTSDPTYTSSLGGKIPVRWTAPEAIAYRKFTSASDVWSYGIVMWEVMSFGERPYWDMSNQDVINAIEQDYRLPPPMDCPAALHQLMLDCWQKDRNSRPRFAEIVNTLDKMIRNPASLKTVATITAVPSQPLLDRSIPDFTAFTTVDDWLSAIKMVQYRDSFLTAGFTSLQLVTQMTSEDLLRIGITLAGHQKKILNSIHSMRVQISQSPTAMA

[8] = molecular target: FGFR1 (UniProt P11362); assay: as above
[9] = test system: AncSZ; assay: as above
[10] = molecular target: Fes (UniProt P07332); assay: as above
Fes, sequence (P07332 whole entry, looked up): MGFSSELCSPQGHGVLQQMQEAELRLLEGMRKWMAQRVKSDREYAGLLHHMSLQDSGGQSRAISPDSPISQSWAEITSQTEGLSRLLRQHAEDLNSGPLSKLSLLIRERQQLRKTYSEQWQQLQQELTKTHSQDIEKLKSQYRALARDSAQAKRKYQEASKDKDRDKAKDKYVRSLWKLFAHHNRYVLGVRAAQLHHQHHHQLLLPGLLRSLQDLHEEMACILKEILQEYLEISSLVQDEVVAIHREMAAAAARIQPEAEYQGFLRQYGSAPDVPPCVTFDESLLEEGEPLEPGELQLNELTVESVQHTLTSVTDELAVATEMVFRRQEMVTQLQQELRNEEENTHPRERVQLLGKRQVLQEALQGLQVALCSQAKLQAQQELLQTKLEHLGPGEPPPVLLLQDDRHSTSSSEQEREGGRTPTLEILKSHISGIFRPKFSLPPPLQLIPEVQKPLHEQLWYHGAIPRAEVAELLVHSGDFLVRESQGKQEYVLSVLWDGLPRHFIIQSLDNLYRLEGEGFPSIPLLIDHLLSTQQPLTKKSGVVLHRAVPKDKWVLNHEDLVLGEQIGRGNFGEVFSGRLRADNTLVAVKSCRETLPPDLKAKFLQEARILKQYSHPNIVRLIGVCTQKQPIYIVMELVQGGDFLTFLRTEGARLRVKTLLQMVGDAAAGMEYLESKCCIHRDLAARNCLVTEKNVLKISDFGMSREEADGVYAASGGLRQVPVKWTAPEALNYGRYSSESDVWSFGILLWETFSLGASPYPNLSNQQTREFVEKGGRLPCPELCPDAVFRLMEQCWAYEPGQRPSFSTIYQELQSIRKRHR

[11] = molecular target: Jak2 (UniProt O60674); assay: as above
[12] = molecular target: EPHB2 (UniProt P29323); assay: as above
EPHB2, sequence (P29323 whole entry, looked up): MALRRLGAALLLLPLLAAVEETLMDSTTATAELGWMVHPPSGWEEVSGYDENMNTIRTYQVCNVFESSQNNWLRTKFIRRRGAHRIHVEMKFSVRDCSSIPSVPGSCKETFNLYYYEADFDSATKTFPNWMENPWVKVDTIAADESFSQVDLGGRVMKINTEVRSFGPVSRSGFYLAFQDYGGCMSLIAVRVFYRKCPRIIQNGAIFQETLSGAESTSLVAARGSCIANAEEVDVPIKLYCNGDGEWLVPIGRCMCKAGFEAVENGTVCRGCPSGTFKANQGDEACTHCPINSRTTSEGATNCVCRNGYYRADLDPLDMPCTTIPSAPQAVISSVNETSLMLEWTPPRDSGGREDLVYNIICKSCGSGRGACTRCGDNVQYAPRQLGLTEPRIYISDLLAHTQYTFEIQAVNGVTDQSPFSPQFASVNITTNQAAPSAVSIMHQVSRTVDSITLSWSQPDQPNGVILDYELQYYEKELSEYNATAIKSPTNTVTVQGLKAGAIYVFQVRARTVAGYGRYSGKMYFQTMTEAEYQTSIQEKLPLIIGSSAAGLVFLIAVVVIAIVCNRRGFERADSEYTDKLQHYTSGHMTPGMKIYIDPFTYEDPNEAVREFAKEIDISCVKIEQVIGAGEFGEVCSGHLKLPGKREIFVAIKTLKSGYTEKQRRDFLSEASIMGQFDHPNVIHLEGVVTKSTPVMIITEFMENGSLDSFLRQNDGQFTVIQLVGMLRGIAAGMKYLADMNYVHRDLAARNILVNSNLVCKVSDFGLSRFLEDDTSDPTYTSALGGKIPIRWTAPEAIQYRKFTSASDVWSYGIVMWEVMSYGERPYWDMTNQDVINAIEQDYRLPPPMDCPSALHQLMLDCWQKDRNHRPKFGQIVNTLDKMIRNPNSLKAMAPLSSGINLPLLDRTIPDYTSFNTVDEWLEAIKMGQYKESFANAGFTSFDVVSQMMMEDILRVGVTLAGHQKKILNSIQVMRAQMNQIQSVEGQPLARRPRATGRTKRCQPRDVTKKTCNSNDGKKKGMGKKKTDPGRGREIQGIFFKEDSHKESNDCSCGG

[13] = molecular target: Fyn (UniProt P06241); assay: as above
Fyn, sequence (P06241 whole entry, looked up): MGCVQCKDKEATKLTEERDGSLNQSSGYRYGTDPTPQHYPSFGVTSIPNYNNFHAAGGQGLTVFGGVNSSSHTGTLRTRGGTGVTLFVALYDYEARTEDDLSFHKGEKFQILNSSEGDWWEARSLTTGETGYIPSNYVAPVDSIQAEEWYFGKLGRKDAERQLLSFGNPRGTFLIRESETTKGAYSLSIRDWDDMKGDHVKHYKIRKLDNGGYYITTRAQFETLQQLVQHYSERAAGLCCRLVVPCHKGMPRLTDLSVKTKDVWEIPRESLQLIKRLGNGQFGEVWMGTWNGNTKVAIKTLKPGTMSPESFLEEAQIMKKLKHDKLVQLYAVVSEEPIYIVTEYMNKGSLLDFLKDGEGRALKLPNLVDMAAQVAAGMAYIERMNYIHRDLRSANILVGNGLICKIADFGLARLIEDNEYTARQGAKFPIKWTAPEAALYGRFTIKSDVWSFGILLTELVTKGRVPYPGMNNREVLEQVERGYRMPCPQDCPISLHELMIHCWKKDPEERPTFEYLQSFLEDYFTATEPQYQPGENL

[14] = molecular target: Grb2 SH2 (UniProt P62993); assay: SH2 binding enrichment of the phosphorylated peptide, bacterial display (enrichment ratio); higher = better substrate or ligand; peptides without Tyr show the background
[15] = molecular target: c-Src SH2; assay: as above
[16] = molecular target: SHP2-C SH2; assay: as above
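Wherever SH2 binding enrichment of the phosphorylated peptide, bacterial display is given: peptide library displayed on the E. coli surface as eCPX fusions, selected cells deep-sequenced, score is each peptide's frequency after selection divided by its frequency in the input.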
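Wherever phosphorylation enrichment, bacterial display is given: 11-residue human phosphosite peptides and single-mutation variants displayed on the E. coli surface, counted by deep sequencing, each peptide's frequency after selection divided by its frequency in the unselected input library; frequency after pTyr selection over input frequency; kinase dosed for 20-30% of maximal phosphorylation in three min.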

Hck, sequence (P08631 whole entry, looked up): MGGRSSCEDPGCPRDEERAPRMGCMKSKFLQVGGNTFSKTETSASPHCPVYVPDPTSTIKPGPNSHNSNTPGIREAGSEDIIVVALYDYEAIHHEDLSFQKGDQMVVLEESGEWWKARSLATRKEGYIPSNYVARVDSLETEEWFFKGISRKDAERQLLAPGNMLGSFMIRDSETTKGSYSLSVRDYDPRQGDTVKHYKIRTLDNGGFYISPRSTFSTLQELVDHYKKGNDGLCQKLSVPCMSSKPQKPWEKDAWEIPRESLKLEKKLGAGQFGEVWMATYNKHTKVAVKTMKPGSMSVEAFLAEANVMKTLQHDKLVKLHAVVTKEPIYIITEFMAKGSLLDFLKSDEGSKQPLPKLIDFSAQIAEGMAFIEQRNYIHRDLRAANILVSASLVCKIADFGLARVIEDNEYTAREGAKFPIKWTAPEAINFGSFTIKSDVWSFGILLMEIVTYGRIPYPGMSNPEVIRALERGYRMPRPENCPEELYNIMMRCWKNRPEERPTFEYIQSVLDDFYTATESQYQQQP
MERTK, sequence (Q12866 whole entry, looked up): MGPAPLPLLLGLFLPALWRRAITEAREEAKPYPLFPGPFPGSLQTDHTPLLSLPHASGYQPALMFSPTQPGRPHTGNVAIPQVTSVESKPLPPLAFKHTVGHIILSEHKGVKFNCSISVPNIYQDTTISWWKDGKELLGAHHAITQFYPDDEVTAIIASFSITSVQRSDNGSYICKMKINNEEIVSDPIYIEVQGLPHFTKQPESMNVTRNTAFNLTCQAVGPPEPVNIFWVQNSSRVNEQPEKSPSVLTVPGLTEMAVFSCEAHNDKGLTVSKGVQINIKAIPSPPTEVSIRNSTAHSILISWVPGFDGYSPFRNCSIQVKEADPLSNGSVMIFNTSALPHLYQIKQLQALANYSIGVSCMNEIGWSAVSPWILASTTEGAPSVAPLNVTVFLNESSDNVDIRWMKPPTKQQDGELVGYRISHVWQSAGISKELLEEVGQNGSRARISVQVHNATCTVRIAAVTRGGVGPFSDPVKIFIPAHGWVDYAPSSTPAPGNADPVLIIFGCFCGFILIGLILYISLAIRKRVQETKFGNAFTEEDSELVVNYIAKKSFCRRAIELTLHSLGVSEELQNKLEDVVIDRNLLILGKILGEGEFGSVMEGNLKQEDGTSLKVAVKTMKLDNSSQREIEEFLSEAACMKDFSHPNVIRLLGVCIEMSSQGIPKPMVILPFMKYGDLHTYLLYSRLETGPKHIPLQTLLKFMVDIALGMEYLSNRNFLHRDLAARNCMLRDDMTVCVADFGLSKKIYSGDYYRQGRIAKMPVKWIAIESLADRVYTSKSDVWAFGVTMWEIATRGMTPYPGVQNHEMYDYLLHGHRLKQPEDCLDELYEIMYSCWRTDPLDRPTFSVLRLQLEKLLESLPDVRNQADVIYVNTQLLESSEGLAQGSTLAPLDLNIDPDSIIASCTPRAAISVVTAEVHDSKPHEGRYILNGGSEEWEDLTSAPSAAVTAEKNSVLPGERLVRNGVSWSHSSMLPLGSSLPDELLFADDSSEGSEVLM

SH2 binding enrichment [14]	SH2 binding enrichment [15]	SH2 binding enrichment [16]	Sequence	phosphorylation enrichment [1]	phosphorylation enrichment [2]	phosphorylation enrichment [3]	phosphorylation enrichment [4]	phosphorylation enrichment [5]	phosphorylation enrichment [6]	phosphorylation enrichment [7]	phosphorylation enrichment [8]	phosphorylation enrichment [9]	phosphorylation enrichment [10]	phosphorylation enrichment [11]	phosphorylation enrichment [12]	phosphorylation enrichment [13]
0.618	0.341	0.613	KSLFHHRQYSA [CPS1_Y1491_Y1491H]	0.488	0.478	0.439	0.412	0.472	0.504	1.04	0.563	0.573	0.547	0.555	0.491	0.519
1.08	0.948	0.686	KSMSVYCTPNK [ATP2A2_Y497]	1	0.455	0.509	0.632	0.653	1.38	0.696	0.473	1.13	0.94	0.581	0.702	0.699
1.04	0.494	0.918	KWTVDYLGQVG [TYW5_Y48_S50G]	0.487	0.392	0.405	0.602	0.336	0.621	0.515	0.531	0.913	0.774	0.845	0.444	0.46
2.28	1.7	6.88	KYVVVYFRETD [IL17RB_Y447_I451T]	0.579	0.491	0.564	0.708	0.445	0.762	0.757	0.459	1.36	1.34	1.27	0.554	0.43
0.742	0.675	0.719	LADKPYTFEFF [FXN_Y118_D122Y_YF]	0.644	2.87	1.25	0.952	1.22	1.19	0.764	0.649	1.78	1.82	1.58	0.683	1.47
0.681	0.409	0.838	LDPDSYNKFEN [FOXC1_Y159_M161K]	0.698	1.02	0.483	0.97	0.802	1.25	0.758	0.765	1.54	1.69	1.52	0.656	0.665
0.785	0.767	0.921	LDTFIYDAAVL [GRIN2A_Y730_A727T]	8.1	7.94	16.9	0.991	2.94	7.38	1.68	0.827	1.97	1.65	1.4	2.05	7.61
0.826	2.86	1.84	LEAVSYSSPYA [RNLS_Y190_R193P]	1.07	1.12	0.714	0.987	0.627	2.02	0.818	0.697	1.81	1.03	1.51	0.936	0.864
0.978	0.569	0.518	LENQTYFKSFE [AKAP9_Y2482]	1.22	0.579	0.67	0.903	0.81	0.872	1.24	0.956	1.59	1.33	1.13	1.24	1.08
0.607	0.546	0.622	LENSTYQFIRV [CRB1_Y760_YF]	7.9	3.85	15.8	3.21	4.96	1.18	5.79	5.63	1.36	1.52	0.946	1.75	2.87
0.715	0.522	0.526	LENSTYQYICV [CRB1_Y760_R764C]	5.89	3.5	15.4	8.35	6.83	1.61	11.9	14.1	3.88	2.41	2.13	8.2	4.96
1.2	0.703	0.85	LERFIYNREEL [HLA-DPB1_Y59_F64L_YF]	1.5	2.42	0.669	0.75	0.694	1.11	0.698	0.666	1.5	1.3	1.54	0.734	1.19
1.03	0.566	0.783	LERFIYNRQEF [HLA-DPB1_Y59_E62Q_YF]	0.77	0.859	0.427	0.532	0.357	0.464	0.436	0.491	0.766	0.87	0.629	0.551	0.551
0.866	0.677	0.851	LERYIYNPEEF [HLA-DPB1_Y59_R61P]	1.56	3.71	0.85	0.902	0.682	1.32	0.783	0.875	1.48	1.74	2.66	0.965	2.16
0.915	0.429	0.911	LESETYRRLLD [KRT12_Y429_I426S]	0.697	0.517	0.708	1.02	0.664	0.778	0.75	0.784	1.44	1.66	1.07	0.836	0.684
0.86	0.613	0.732	LESILYESSVV [TRPV4_Y91_T89I]	1.65	1.14	7.52	0.825	0.678	1.01	0.607	0.725	1.65	1.39	1.23	0.719	1.22
1.06	0.463	0.543	LFDPDFMKVIL [CYP4A22_Y104_Y104F_YF]	1.12	1.23	0.999	1.86	1.06	2.1	1.63	1.15	2.44	2.6	2.74	0.908	0.899
1.48	0.936	0.95	LFRFGYANTSE [SI_Y1233_C1229Y_YF]	0.51	0.376	0.433	0.497	0.315	0.847	0.378	0.619	0.696	0.937	0.807	0.585	0.411
1.38	1.27	2.78	LFSINYLHFGE [KDM4C_Y201_YF]	0.65	0.528	0.822	0.899	0.634	0.953	1.3	0.902	1.35	1.6	1.29	0.661	0.624
0.921	0.42	0.684	LFVDVYGPSVP [NUBPL_Y109_D105Y_YF]	1.5	1.47	0.748	0.709	0.355	0.717	0.576	0.482	1.23	1.34	1.17	0.545	1.16
1.53	1.13	1.55	LGKLIYPVGFW [NTHL1_Y177]	0.746	1.35	0.557	1.13	0.634	1.27	0.999	0.816	1.6	1.87	1.67	1.02	0.752
0.65	0.337	0.547	LGRGKSSEVFE [CSNK2A1_Y50_Y50S]	0.517	0.653	0.593	0.661	0.639	0.835	0.341	0.438	0.923	1.01	0.996	0.605	0.646
0.739	1.44	0.701	LGRGKYSEVFE [CSNK2A1_Y50]	0.768	0.704	0.478	0.805	0.753	0.924	0.514	0.685	1.01	1.19	0.929	0.798	1.19
0.881	0.748	0.767	LGRTRYQHVTG [MIPEP_Y510]	0.309	0.445	0.377	0.428	0.499	0.564	0.439	0.477	0.694	0.723	0.559	0.393	0.488
8.54	0.837	0.611	LHAAAYQNALA [UQCRC2_Y182_R183Q]	0.45	0.393	0.427	0.476	0.4	0.495	0.433	0.512	1.01	0.715	0.646	0.423	0.474
1.95	1.86	1.92	LHRAHYDLHHT [AHSG_Y314_R317H]	0.553	0.505	1.36	0.857	0.496	0.781	0.69	0.511	0.836	1.01	0.646	0.674	0.637
0.95	4.23	0.721	LHVGFYESDVM [A2M_Y708_R704H]	0.743	0.676	1.9	1.21	1.15	0.761	1.41	0.889	1.18	1.58	1.34	1.14	0.691
0.997	0.431	0.557	LIGRRCDDPEV [HSPA9_Y128_Y128C]	0.575	0.722	0.666	1.03	0.582	1	0.782	0.697	1.76	1.51	1.41	0.623	1.12
0.841	0.583	0.652	LKRIAYFLCLR [LGI1_Y21_L26R]	0.37	0.341	0.435	0.601	0.359	0.708	0.372	0.365	0.997	1.06	0.949	0.413	0.399
